Among the data in a protein production outcome set (Wang et al. 2014) are protein production values, retold here.

This data set can be described thus: label from the status in PepcDB records.
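Further: failed if final PepcDB status was selected cloned or expressed and not failed if soluble or beyond.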

Turning to “MELWTHPTPAAPRLATSTRTRWRRTSRCSQPWATTPGTNSSDASRTPTTASASATSKPQSASARARSVRRSPDCTPRAWSRGARKDRGATTNRPRRPKFCSKRSTTCEATMSNDNETMVADRDPEETREMVRERYAGIATSGQDCCGDVGLDVSGDGGCCSDETEASGSERLGYDADDVASVADGADLGLGCGNPKAFAAMAPGETVLDLGSGAGFDCFLAAQEVGPDGHVIGVDMTPEMISKARENVAKNDAENVEFRLGEIGHLPVADESVNVVISNCVVNLAPEKQRVFDDTYRVLRPGGRVAISDVVQTAPFPDDVQMDPDSLTGCVAGASTVDDLKAMLDEAGFEAVEIAPKDESTEFISDWDADRDLGEYLVSATIEARKPARDD”, the protein production entry is “failed”.

“MEMESAAASTRFHQPHMERKMSAMACEIFNELRLEGKLCDVVIKVNGFEFSAHKNILCSCSSYFRALFTSGWNNTEKKVYNIPGISPDMMKLIIEYAYTRTVPITPDNVEKLLAAADQFNIMGIVRGCCEFLKSELCLDNCIGICKFTDYYYCPELRQKAYMFILHNFEEMVKVSAEFLELSVTELKDIIEKDELNVKQEDAVFEAILKWISHDPQNRKQHISILLPKVRLALMHAEYFMNNVKMNDYVKDSEECKPVIINALKAMYDLNMNGPSNSDFTNPLTRPRLPYAILFAIGGWSGGSPTNAIEAYDARADRWVNVTCEEESPRAYHGAAYLKGYVYIIGGFDSVDYFNSVKRFDPVKKTWHQVAPMHSRRCYVSVTVLGNFIYAMGGFDGYVRLNTAERYEPETNQWTLIAPMHEQRSDASATTLYGKVYICGGFNGNECLFTAEVYNTESNQWTVIAPMRSRRSGIGVIAYGEHVYAVGGFDGANRLRSAEAYSPVANTWRTIPTMFNPRSNFGIEVVDDLLFVVGGFNGFTTTFNVECYDEKTDEWYDAHGMSIYRSALSCCVVPGLANVEEYAARRDNFPGLALRDEVKYSASTSTLPVRASSFS”: the protein production result was “failed”.

As to “MEMMQDSFQVHRIPQSKYVDGVRWLPQASALNRFFATASYDADCDSSSIEIQSLDPNPRGNHNTNPLIESLSSWTSPSRVSSLEVAGNGGGGGSFKPMVSAATSSGSLHVLMIDLVEGAAIEEFYAAEGERFHVGRVEGVDWREGGECVTVGEDGRVNVVKIVNGEGLRYRKVFDGNGLVAYRAVKWASPTEFVTGGYGFGLQLWDQRKSGEAVSQLKGNWFQGKTSAIVHSIDIHPSRKHTCIAGGSSGTVFAWDLRWPQQPIVLSGVGASENINNPLSESEVWEVQYDSYTKSNVSSSRILPVMTCSEDGILGIIEQGEEPIELLAEPCAINSFDIDRQNPQDVICSLEWESIAVFSRP”, the protein production entry is recorded as “failed”.

In the case of “MEMRFFVLGAGSWGTVFAQMLHENGEEVILWARRKEIVDLINVSHTSPYVEESKITVRATNDLEEIKKEDILVIAIPVQYIREHLLRLPVKPSMVLNLSKGIEIKTGKRVSEIVEEILGCPYAVLSGPSHAEEVAKKLPTAVTLAGENSKELQKRISTEYFRVYTCEDVVGVEIAGALKNVIAIAAGILDGFGGWDNAKAALETRGIYEIARFGMFFGADQKTFMGLAGIGDLMVTCNSRYSRNRRFGELIARGFNPLKLLESSNQVVEGAFTVKAVMKIAKENKIDMPISEEVYRVVYEGKPPLQSMRDLMRRSLKDEFWASVVDSSL”, the protein production result is “not failed”.

Regarding “MEMSKQLGKKFNLLTLLAYAAPTMALMLFMSIYTMVDGMFIARYVGATALSAVNIFFPIYGLIIAIALMLGTGANAIIAKKIGENNEEEAKENFTFIVICGAVLGLVITVFGLLLMEPILLMLGAGATEELFDFTYTYAKIILCTSPFMILQMLFQNFFVTAGKPNLGLTITVVGGVANIVLDYVFIVLLQMGIAGAGIATAIGIFIPAAYGFVYFIYNKESGLHFVKPKVDGKVLLNSCINGSSEMVSNLASSIVTFAFNLLMIKHLGVDGVAAITIMLYVMFILSSISMGYSAGVAPIISYNYGSKNSSQLKRVFNYSLLIIVIGSVTMYGVSMMFGAYFIQFMAPEGSAVYHIAIEGLNIFSISFLFMGFNIFSSMVFTAFSNGKISAAISFLRTLVFVLASLWILPAILGVTGIWLAIPLAEILSVIVCIFFLTHYRNDYHYA”, the protein production entry is reported as “failed”.

Take “MEMVKSRSKVAIIGAGFVGASAAFTMALRQTANELVLIDVFKEKAIGEAMDINHGLPFMGQMSLYAGDYSDVKDCDVIVVTAGANRKPGETRLDLAKKNVMIAKEVTQNIMKYYNHGVILVVSNPVDIITYMIQKWSGLPVGKVIGSGTVLDSIRFRYLLSEKLGVDVKNVHGYIIGEHGDSQLPLWSCTHIAGKNINEYIDDPKCNFTEEDKKKIAEDVKTAGATIIKNKGATYYGIAVSINTIVETLLKNQNTIRTVGTVINGMYGIEDVAISLPSIVNSEGVQEVLQFNLTPEEEEALRFSAEQVKKVLNEVKNL”: the protein production entry is reported as “not failed”.

As to “MENEKILNPIIIQRADPMIYKHNDGYYYFTASVPEYDRIEVRKAKTIEGLRNAEPVDVWRRHESGEMSNLIWAPEIHFINGAWYIYFAAAPDKNIEDDTFNHRMFVIQNENENPFTGNWVEKGRIKTAWESFSLDATIFEHNEKLYYVWAQQDINIKGHSNIYIAEMENPWTLKTKPVMLTKPELEWEIKGFWVNEGPAVLKKNGKIFITYSASATDVNYCIGMLTAEENSNLLDKNSWTKSQTPVFKTSMENHQYGPGHNSFTVSEDGKHDVIVYHARNYTEIKGDPLYDPNRHTRAQIINWREDGTPDFGVPEVDSLEIETPVKA”, the protein production entry was “not failed”.

Turning to “MENINFFIVFIEGILSIFSPCILPILPIYLSMLSNSSVEDIRDSNFKSGVLIRNTLFFTLGISTTFFILGSSISALSSFFNTNKNIIMILGGVIILFMGLFYLGVINLNILNREKRLNFKYKNMSPLSAFVLGFTFSFGWTPCIGPILASVLVMASSSKNLLMSNLLILVYTIGFILPFIIASLFYGKLFKKFDGIKKHMDLIKKISGIFIIIAGLIMLVGGIRNMNNEIKINNNPQINKSESANKDSKNESDNKKQEEGNKIPPIDFTLYDQYGNKHTLSEYKGKTIFLNFWATWCPPCRGEMPYIDELYKEYNENKDDVVILGVASPNLGREGSEEHIKNFLKEENHVFPVVLDENGAMVYQYGINAFPSTFIINKEGYITKYIPGAMTKETMKTLIESER”, the protein production entry is given as “failed”.

As to “MENLKNIQPREDFNWEEFEAGGVHAAVSRQEQEAAYDKTLNTIKEKEVVMGRVTAINKREVVINVGYKSEGVVPATEFRYNPELKVGDEVEVYIENQEDKKGQLVLSHRKARAARSWERVNEALEKDEIVKGYVKCRTKGGMIVDVFGIEAFLPGSQIDVRPIRDYDAFVEKTMEFKIVKINQEYKNVVVSHKVLIEAELEQQKKEIIGKLEKGQVLEGIVKNITSYGVFIDLGGVDGLIHITDLSWGRVAHPEEIVQLDQKINVVILDFDEDRKRIALGLKQLMPHPWDALDSELKVGDKVKGKVVVMADYGAFVEIAQGVEGLIHVSEMSWTQHLRSAQDFLHVGDEVEAVILTLDREERKMSLGLKQLKPDPWADIETRFPVGSRHHARVRNFTNFGVFVEIEEGVDGLIHISDLSWTKKIKHPSEFTEVGADIEVQVIEIDKENRRLSLGHKQLEENPWDVFETVFTVGSIHEGTVIEVMDKGAVVSLPYGVEGFATPKHMVKEDGSQAVLEEKLPFKVIEFNKDAKRIIVSHSRVFEDEQKMAQREANAERKAEAKAAQKEAAAEAANPAQAVEKATLGDLGELAALKEKLSEN”, the protein production result is reported as “failed”.

On to “MENLTNDVITILQYLLPGFVSAWVFYSLTSYPKPSQFERVVQALIFTIFIQAIVVVVEFSVRWLCATYEITGVPDKFGLVGSVVTAILLGVAFAGFANNDLLHKCLRRCLITRETSYLRNGLVPFYRTLLLLSYT”, for which the protein production result is “failed”.

As for “MENPLFCPDCGMMRDNCTCKGKGRLSFFRNIIRPPEKSDTLNEDLQRRYPHIPPEIIENFPFPQPRPGQLDIINDIYQAIEEGYRYVILEAGTGTGKSAIACTLAGIYQPAYILTMTKQLQDQYAREFGFPVVKGRSNFFCLNDNLESTCDMGTCQTLPSSEKFQCPYGVVRGETLLGEEAFQDSYGNRVFFKTAEHCQYWEQKAEAINSPITLMNYDYAFLELNYVGHFDRRNLMILDEAHNIEDKLMRRLEVTISNKRLSKDIRRTIPPSMLREDDPAEWVLQIEAIADHYSDLELDSMSRRRRDRIKRTIKRLSELRMSLEDEPKNWVIDADDDSVSFKPLRVHHYAHDRLFSYSEVCLFMSATILSERLFCQWLGINPGDAYFVRVDSPFPASRRPIELKIAGKMSRNRIRHTAPETIPILNRILERHKNDKGLIHTHNYRCQRFIMDNIPSRRLIDHKASNREAVLRYFEESDEPLVLVSPSMSEGVDLPYDKCRFQVIYKIPFPYLGDKQVNRRQRMDQRWYAYKTIMTLMQAYGRGMRAHDDSCYTYILDGNIEMIFRSPLYRSLLPEFFKEAIVNE”, the protein production result is “failed”.
